Measurements as given in US10994019B2, “Bicyclic peptide-toxin conjugates specific for MT1-MMP” (BicycleRD Limited, priority 2016, dated 2021).
Starred links: 1 amine or outer side, 2 acyl side, 3 side chain; linkers in the order of their positions; H or OH if unused. Positions of bridges follow the written chain, without caps; N, C: chain ends. Non-standard residues stand in square brackets, D forms with d. Residues, ends and D or L forms follow the SMILES beside them. *: point of attachment. X1 = COc1cc2cc(c1Cl)N(C)C(=O)C[C@H](OC(=O)[C@H](C)N(C)C(=O)CCSSC(C)(C)CCC(=O)*)[C@]1(C)O[C@H]1[C@H](C)[C@@H]1C[C@@](O)(NC(=O)O1)[C@H](OC)/C=C/C=C(\C)C2; 1Nal = N[C@@H](Cc1cccc2ccccc12)C(=O)O; TBMB = c1c(C[*:1])cc(C[*:3])cc1C[*:2]; Tle = CC(C)(C)[C@H](N)C(=O)O; βAla = NCCC(=O)O; Sar = CNCC(=O)O

Tests used:
[1] = tested on: MMP-1, MMP-2, MMP-15 and MMP-16; experiment: Selectivity for MT1-MMP over other MMPs; format: binding
[2] = Plasma stability profiling, Method #2 (quantitative LC-MS), human plasma; format: in vitro ADME; details: incubation up to 24 hrs in plasma, 4 μM BDC, read-out: t1/2 (hrs) (human plasma) (converted)
Description: (§1) To obtain plasma stability of bicyclic peptides quantitatively, peptide stock solutions (160 μM in DMSO) were mixed with plasma (human, rat or mouse), such that final concentrations were 4 μM, and incubated at 37° C. 40 μL samples were taken periodically up to 24 hrs and frozen at −80° C. Prior to LC-MS analysis, samples were defrosted, and mixed with 3 volumes (here, 120 μL) of 1 part water, 3 parts acetonitrile and 3 parts methanol. The milky suspensions were centrifuged for 40 min at 14000 rpm in a cooled centrifuge, and peptide-containing supernatants were quantitated for doubly/triply charged species and MS/MS fragments thereof using a Waters Xevo TQ-D instrument, while using a plasma extracted standard curve of the same peptides as a reference. The half-life of degradation in plasma was used to assess the comparative stability of the molecules.

[3] = Plasma stability profiling, Method #2 (quantitative LC-MS), mouse plasma; format: in vitro ADME; details: incubation up to 24 hrs in plasma, 4 μM BDC, read-out: t1/2 (hrs) (mouse plasma) (converted)
Description: as §1

[4] = Plasma stability profiling, Method #2 (quantitative LC-MS), rat plasma; format: in vitro ADME; details: incubation up to 24 hrs in plasma, 4 μM BDC, read-out: t1/2 (hrs) (rat plasma) (converted)
Description: as §1

[5] = Relative stability to DTT of Bicycle Drug Conjugates by quantitative LC-MS; format: physicochemical; details: compared to unhindered disulphide BDCs
Description: Both BDC conjugate structures were assessed for several in vitro parameters such as retention of potency to the human MT1-MMP hemopexin domain, stability in mouse, rat and human plasma, and stability to reducing agents such as dithiothreitol.

[6] = tested on: EBC-1 xenograft tumours; experiment: Efficacy in EBC-1 xenograft mice; format: in vivo, Balb/c nude mice
Description: (§2) Efficacy of BT17BDC-27 and BT17BDC-28 in EBC-1 Xenograft Mice.
(§3) Balb/c nude mice bearing subcutaneous EBC-1 xenograft tumours were treated with BDCs or vehicle. BDCs were dosed 3 times weekly for 2 weeks, dosing initiated when tumours measured approx. 150-200 mm^3. Mice were monitored, and measurements of tumour volume and body weight recorded 3 times a week.
Both BDCs were tested for their efficacies in in vivo mouse xenograft models, using the human lung squamous cell carcinoma line EBC-1.

[7] = Body weight during treatment of EBC-1 xenograft mice; format: in vivo, Balb/c nude mice; details: 10 mg/kg
Description: FIG. 2: Body weight during treatment of EBC-1 xenograft mice with BT17BDC-27, which is indicative of drug-associated toxicology and overall animal health.
FIG. 4: Body weight during treatment of EBC-1 xenograft mice with BT17BDC-28, which is indicative of drug-associated toxicology and overall animal health.
as §2, §3

[8] = cited from earlier work; for reduction in sensitivity to a reducing agent such as dithiothreitol: in the antibody drug conjugate context; for Relative Stability to DTT (ADC): values relate to antibody drug conjugates containing the disulphide linker
[9] = tested on: murine, dog, cynomolgus and human MT1-MMP; experiment: Species cross-reactivity of peptide ligands; format: binding
[10] = 10 mg/kg, dosed 3 times weekly for 2 weeks

Molecule	half-life at 4 μM [2]	half-life at 4 μM [3]	half-life at 4 μM [4]	Relative Stability to DTT (BDC) [5]	body weight [7]	reduction in sensitivity to a reducing agent such as dithiothreitol [8]	Relative Stability to DTT (ADC) [8]	cross-reactivity with murine, dog, cynomolgus and human MT1-MMP [9]	other results
-Ci-Y-N-E-F-G-Cii-E-D-F-Y-D-I-Ciii- [17-69-07]	–	–	–	–	–	–	–	–	selectivity for MT1-MMP (no cross-reaction with MMP-1, MMP-2, MMP-15 and MMP-16) [1]: uniquely selective for MT1-MMP
COc1cc2cc(c1Cl)N(C)C(=O)C[C@H](OC(=O)[C@H](C)N(C)C(=O)CCSSC(C)(C)CCC(=O)N[C@@H](C)C(=O)N[C@H]1CSCc3cc4cc(c3)CSC[C@H](NC(=O)[C@@H](C)NC(=O)[C@H](Cc3cccc5ccccc35)NC(=O)[C@H](CCC(=O)O)NC(=O)[C@H](CC(N)=O)NC(=O)[C@@H](C)NC1=O)C(=O)N[C@@H](CCC(=O)O)C(=O)N[C@@H](CC(=O)O)C(=O)N[C@@H](Cc1ccccc1)C(=O)N[C@@H](Cc1ccc(O)cc1)C(=O)N[C@@H](CC(=O)O)C(=O)N[C@@H](C(C)(C)C)C(=O)N[C@H](C(N)=O)CSC4)[C@]1(C)O[C@H]1[C@H](C)[C@@H]1C[C@@](O)(NC(=O)O1)[C@H](OC)/C=C/C=C(\C)C2 [BT17BDC-27] (X1-AC[dA]NE[1Nal][dA]CEDFYD[Tle]C-NH2; linker 2-8-15 via TBMB)	36 h	23 h	9 h	32	slight reduction in body weight	14 fold	14	–	cleared tumours within [6, 10]: ≤ 14 days; efficacy and tolerability ([6]; doses equal or lower than 5 mg/kg): appreciable efficacy and tolerability
C[C@H](N)C(=O)N[C@H]1CSCc2cc3cc(c2)CSC[C@H](NC(=O)[C@@H](C)NC(=O)[C@H](Cc2cccc4ccccc24)NC(=O)[C@H](CCC(=O)O)NC(=O)[C@H](CC(N)=O)NC(=O)[C@@H](C)NC1=O)C(=O)N[C@@H](CCC(=O)O)C(=O)N[C@@H](CC(=O)O)C(=O)N[C@@H](Cc1ccccc1)C(=O)N[C@@H](Cc1ccc(O)cc1)C(=O)N[C@@H](CC(=O)O)C(=O)N[C@@H](C(C)(C)C)C(=O)N[C@H](C(N)=O)CSC3 [17-69-07-N268, A-(17-69-07) D-Ala1 1Nal4 D-Ala5 tBuGly11] (H-AC[dA]NE[1Nal][dA]CEDFYD[Tle]C-NH2; linker 2-8-15 via TBMB)	–	–	–	–	–	–	–	fully cross reactive	–
COc1cc2cc(c1Cl)N(C)C(=O)C[C@H](OC(=O)[C@H](C)N(C)C(=O)CCSSC(C)(C)CCC(=O)NCCC(=O)N(C)CC(=O)N(C)CC(=O)N(C)CC(=O)N(C)CC(=O)N(C)CC(=O)N(C)CC(=O)N(C)CC(=O)N(C)CC(=O)N(C)CC(=O)N(C)CC(=O)N[C@@H](C)C(=O)N[C@H]1CSCc3cc4cc(c3)CSC[C@H](NC(=O)[C@@H](C)NC(=O)[C@H](Cc3cccc5ccccc35)NC(=O)[C@H](CCC(=O)O)NC(=O)[C@H](CC(N)=O)NC(=O)[C@@H](C)NC1=O)C(=O)N[C@@H](CCC(=O)O)C(=O)N[C@@H](CC(=O)O)C(=O)N[C@@H](Cc1ccccc1)C(=O)N[C@@H](Cc1ccc(O)cc1)C(=O)N[C@@H](CC(=O)O)C(=O)N[C@@H](C(C)(C)C)C(=O)N[C@H](C(N)=O)CSC4)[C@]1(C)O[C@H]1[C@H](C)[C@@H]1C[C@@](O)(NC(=O)O1)[C@H](OC)/C=C/C=C(\C)C2 [BT17BDC-28] ({X1-βAla}-[Sar][Sar][Sar][Sar][Sar][Sar][Sar][Sar][Sar][Sar]AC[dA]NE[1Nal][dA]CEDFYD[Tle]C-NH2; linker 12-18-25 via TBMB)	29 h	19 h	13 h	28	no weight loss was observed	14 fold	14	–	effect on tumour growth [6, 10]: tumour growth stasis but not active regression
C[C@H](NC(=O)CN(C)C(=O)CN(C)C(=O)CN(C)C(=O)CN(C)C(=O)CN(C)C(=O)CN(C)C(=O)CN(C)C(=O)CN(C)C(=O)CN(C)C(=O)CN(C)C(=O)CCN)C(=O)N[C@H]1CSCc2cc3cc(c2)CSC[C@H](NC(=O)[C@@H](C)NC(=O)[C@H](Cc2cccc4ccccc24)NC(=O)[C@H](CCC(=O)O)NC(=O)[C@H](CC(N)=O)NC(=O)[C@@H](C)NC1=O)C(=O)N[C@@H](CCC(=O)O)C(=O)N[C@@H](CC(=O)O)C(=O)N[C@@H](Cc1ccccc1)C(=O)N[C@@H](Cc1ccc(O)cc1)C(=O)N[C@@H](CC(=O)O)C(=O)N[C@@H](C(C)(C)C)C(=O)N[C@H](C(N)=O)CSC3 [17-69-07-N241, bAla-Sar10-A-(17-69-07) D-Ala1 1Nal4 D-Ala5 tBuGly11] (H-[βAla][Sar][Sar][Sar][Sar][Sar][Sar][Sar][Sar][Sar][Sar]AC[dA]NE[1Nal][dA]CEDFYD[Tle]C-NH2; linker 13-19-26 via TBMB)	–	–	–	–	–	–	–	fully cross reactive	–
